Source: article PMC10665427, “The heat shock protein LarA activates the Lon protease in response to proteotoxic stress” (Nature Communications, 2023)

Tests used:
Lon-His (C. crescentus) [1] = target: Lon-His (C. crescentus) (UniProt B8GX12)
Lon-His (C. crescentus) [2] = target: Lon-His (C. crescentus) (UniProt B8GX12); remark: listed apart in the source
[3] = target: Lon^EQ (Lon E420Q, Walker-B mutant) (C. crescentus) (UniProt B8GX12); assay: native MS; purified proteins buffer exchanged into 200 mM ammonium acetate pH 8.0, mixed in equimolar ratios (LarA also in 3-fold excess); nano ESI, Waters Synapt G2, source temperature 30 °C
[4] = target: the molecule itself; assay: as above

Molecule: 6xHis-tagged SciP (natural protein)
- Km of Lon-mediated His-SciP degradation in vitro, in the presence of 2 µM LarA (0.05 µM Lon-His hexamer) (Lon-His (C. crescentus) [1]): 1.8 µM
- Km of Lon-mediated His-SciP degradation in vitro, without LarA (0.05 µM Lon-His hexamer) (Lon-His (C. crescentus) [1]): 9.3 µM

Molecule: LarA, purified (natural protein)
- rate of Lon-mediated His-SciP degradation against LarA concentration (0 to 15 µM), highest at 2 µM LarA, compared with reactions lacking LarA (Lon-His (C. crescentus) [2]): 5.5 fold
- stoichiometry N (LarA molecules per Lon^EQ hexamer) [3]: 6

B1: Lon^EQ (Lon E420Q, Walker-B mutant) (enzyme, C. crescentus, UniProt B8GX12 1-799, looked up)
chain: MSELRTLPVLPLRDIVVFPHMVVPLFVGRDKSVRALEEVMRGDKQILLVTQKNSADDDPAPGDIFEVGVLATVLQLLKLPDGTVKVLVEGKARAAVVSFTDQESYYEAQIGEVSEDDGAGPEAEALSRAVVEQFENYVKLNKKVPPEALASIPQIAEPGKLADSIAAHLSVKIGDKQNLLEIFDVVKRLEKVFALMEGEISVLQVEKKIRSRVKRQMEKTQREYYLNEQMKAIQRELGDPDDARDELIDLEKRIKKTKLSKEARTKAESELKKLRNMSPMSAESTVVRNYLDWLLSIPWGKAKTKKIDLVESEGILDADHYGLEKVKERILEYLAVQARTNSLKGPILCLVGPPGVGKTSLGKSIAKATGREFVRMSLGGVRDEAEIRGHRRTYIGSMPGKVVQSMKKAKTTNAFVLLDQIDKMGSDYRGDPASALLEVLDPSQNSTFGDHYLEVDYDLSQVMFVTTANSLNMPQPLLDRMEIIRIPGYTEDEKLEIAKRHILPKLAKDHGLKPAEFIVPDKAIRDLIRYYTREAGVRSLERELGALARKTVRDLAREKVASITIDDERLAKYAGVKKYRYGETDEVDQVGIVTGLAWTEFGGDILTIEAVKMPGKGRMQITGNLKDVMKESIAAANSYVRSRALQFGIKPPVFEKTDVHIHVPDGATPKDGPSAGIAMALAMVSVLTGIPIRKDIAMTGEITLRGRVTAIGGLKEKLLAALRSGVKTVLIPQENEKDLADVPQTVKDGLEIIPVSTVDEVLKHALTGPLTPVEWNEAEEPITTSAKKDDGDSDAMLTH
notes: predicted molecular weight of the hexamer 529,458 Da; Deficient in ATP hydrolysis; source: E. coli BL21-SI/pCodonPlus, purified (Talon, Ulp1 cleavage, anion exchange)
- stoichiometry N [4]: 6
